Assay results: patent publication US20180155451A1 (published 2018)

Target: T1, FcγRIa extracellular domain with C-terminal His tag (human, UniProt P12314 16-292)
T1 construct: extracellular domain; Expressed in FreeStyle293 cells; analyte in Biacore; also called FcgRI; FcgRIa
Experiment: SPR Biacore, antibody captured, FcγRIa analyte; vs GpH7-B3/GpL16-k0 = 100

T1 sequence (P12314 16-292): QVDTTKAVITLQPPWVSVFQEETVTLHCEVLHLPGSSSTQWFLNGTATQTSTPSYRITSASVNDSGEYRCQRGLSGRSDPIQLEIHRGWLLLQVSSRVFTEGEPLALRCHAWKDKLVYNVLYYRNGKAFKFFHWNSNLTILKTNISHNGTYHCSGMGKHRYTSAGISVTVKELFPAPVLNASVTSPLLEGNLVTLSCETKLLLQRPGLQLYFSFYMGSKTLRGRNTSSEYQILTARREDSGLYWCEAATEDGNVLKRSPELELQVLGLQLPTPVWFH

Ho/Con_1a	Binder
102 relative (control = 100)	GpH7-B3 variant A327_09D/GpL16-k0 (Ho Ab) (antibody, human IgG1, kappa, Ho Ab: alteration in both H chains) heavy: not shown light: DIVMTQSPLSLPVTPGEPASISCQASESLVHSNRNTYLHWYLQKPGQSPQLLIYKVSNRFSGVPDRFSGSGSGTDFTLKISRVEAEDVGVYYCSQNTHVPPTFGQGTKVEIERTVAAPSVFIFPPSDEQLKSGTASVVCLLNNFYPREAKVQWKVDNALQSGNSQESVTEQDSKDSTYSLSSTLTLSKADYEKHKVYACEVTHQGLSSPVTKSFNRGEC
101 relative (control = 100)	GpH7-B3 variant E269_06M/GpL16-k0 (Ho Ab) (antibody, human IgG1, kappa, Ho Ab: alteration in both H chains) heavy: not shown light: DIVMTQSPLSLPVTPGEPASISCQASESLVHSNRNTYLHWYLQKPGQSPQLLIYKVSNRFSGVPDRFSGSGSGTDFTLKISRVEAEDVGVYYCSQNTHVPPTFGQGTKVEIERTVAAPSVFIFPPSDEQLKSGTASVVCLLNNFYPREAKVQWKVDNALQSGNSQESVTEQDSKDSTYSLSSTLTLSKADYEKHKVYACEVTHQGLSSPVTKSFNRGEC
100 relative (control = 100)	GpH7-B3 variant E333_01G/GpL16-k0 (Ho Ab) (antibody, human IgG1, kappa, Ho Ab: alteration in both H chains) heavy: not shown light: DIVMTQSPLSLPVTPGEPASISCQASESLVHSNRNTYLHWYLQKPGQSPQLLIYKVSNRFSGVPDRFSGSGSGTDFTLKISRVEAEDVGVYYCSQNTHVPPTFGQGTKVEIERTVAAPSVFIFPPSDEQLKSGTASVVCLLNNFYPREAKVQWKVDNALQSGNSQESVTEQDSKDSTYSLSSTLTLSKADYEKHKVYACEVTHQGLSSPVTKSFNRGEC
105 relative (control = 100)	GpH7-B3 variant A330_14T/GpL16-k0 (Ho Ab) (antibody, human IgG1, kappa, Ho Ab: alteration in both H chains) heavy: not shown light: DIVMTQSPLSLPVTPGEPASISCQASESLVHSNRNTYLHWYLQKPGQSPQLLIYKVSNRFSGVPDRFSGSGSGTDFTLKISRVEAEDVGVYYCSQNTHVPPTFGQGTKVEIERTVAAPSVFIFPPSDEQLKSGTASVVCLLNNFYPREAKVQWKVDNALQSGNSQESVTEQDSKDSTYSLSSTLTLSKADYEKHKVYACEVTHQGLSSPVTKSFNRGEC
102 relative (control = 100)	GpH7-B3 variant E269_04F/GpL16-k0 (Ho Ab) (antibody, human IgG1, kappa, Ho Ab: alteration in both H chains) heavy: not shown light: DIVMTQSPLSLPVTPGEPASISCQASESLVHSNRNTYLHWYLQKPGQSPQLLIYKVSNRFSGVPDRFSGSGSGTDFTLKISRVEAEDVGVYYCSQNTHVPPTFGQGTKVEIERTVAAPSVFIFPPSDEQLKSGTASVVCLLNNFYPREAKVQWKVDNALQSGNSQESVTEQDSKDSTYSLSSTLTLSKADYEKHKVYACEVTHQGLSSPVTKSFNRGEC
108 relative (control = 100)	GpH7-B3 variant A330_09D/GpL16-k0 (Ho Ab) (antibody, human IgG1, kappa, Ho Ab: alteration in both H chains) heavy: not shown light: DIVMTQSPLSLPVTPGEPASISCQASESLVHSNRNTYLHWYLQKPGQSPQLLIYKVSNRFSGVPDRFSGSGSGTDFTLKISRVEAEDVGVYYCSQNTHVPPTFGQGTKVEIERTVAAPSVFIFPPSDEQLKSGTASVVCLLNNFYPREAKVQWKVDNALQSGNSQESVTEQDSKDSTYSLSSTLTLSKADYEKHKVYACEVTHQGLSSPVTKSFNRGEC
106 relative (control = 100)	GpH7-B3 variant A330_08L/GpL16-k0 (Ho Ab) (antibody, human IgG1, kappa, Ho Ab: alteration in both H chains; also called GpH7-B3-20-08L/GpL16-k0) heavy: not shown light: DIVMTQSPLSLPVTPGEPASISCQASESLVHSNRNTYLHWYLQKPGQSPQLLIYKVSNRFSGVPDRFSGSGSGTDFTLKISRVEAEDVGVYYCSQNTHVPPTFGQGTKVEIERTVAAPSVFIFPPSDEQLKSGTASVVCLLNNFYPREAKVQWKVDNALQSGNSQESVTEQDSKDSTYSLSSTLTLSKADYEKHKVYACEVTHQGLSSPVTKSFNRGEC
101 relative (control = 100)	GpH7-B3 variant E269_08L/GpL16-k0 (Ho Ab) (antibody, human IgG1, kappa, Ho Ab: alteration in both H chains) heavy: not shown light: DIVMTQSPLSLPVTPGEPASISCQASESLVHSNRNTYLHWYLQKPGQSPQLLIYKVSNRFSGVPDRFSGSGSGTDFTLKISRVEAEDVGVYYCSQNTHVPPTFGQGTKVEIERTVAAPSVFIFPPSDEQLKSGTASVVCLLNNFYPREAKVQWKVDNALQSGNSQESVTEQDSKDSTYSLSSTLTLSKADYEKHKVYACEVTHQGLSSPVTKSFNRGEC
100 relative (control = 100)	GpH7-B3 variant E269_15Y/GpL16-k0 (Ho Ab) (antibody, human IgG1, kappa, Ho Ab: alteration in both H chains) heavy: not shown light: DIVMTQSPLSLPVTPGEPASISCQASESLVHSNRNTYLHWYLQKPGQSPQLLIYKVSNRFSGVPDRFSGSGSGTDFTLKISRVEAEDVGVYYCSQNTHVPPTFGQGTKVEIERTVAAPSVFIFPPSDEQLKSGTASVVCLLNNFYPREAKVQWKVDNALQSGNSQESVTEQDSKDSTYSLSSTLTLSKADYEKHKVYACEVTHQGLSSPVTKSFNRGEC
